Measured values published in publication PMC12187079 (Nature, 2024).

How the values were obtained:
Assay in all cases: immunostaining of cells or tissue
Details in all cases: one partner purified
RaTG13 NTD-mFc = RaTG13 NTD-mFc (Bat coronavirus RaTG13 (MN996532))
BANAL-20-52 NTD-mFc = BANAL-20-52 NTD-mFc (Bat coronavirus BANAL-20-52/Laos/2020 …)
SARS-CoV-2 NTD-mFc = SARS-CoV-2 NTD-mFc (SARS-CoV-2 Wuhan-Hu-1 (NC_045512))

Measured: binding result

B1: S2L20-CVR (receptor)
VH: EVQLVESGGGVVQPGGSLRLSCAASGFTFNSYGMHWVRQAPGKGLEWVAFIRYDGGNKYYADSVKGRFTISRDNSKNTLYLQMKSLRAEDTAVYYCANLKDSRYSGSYYDYWGQGTLVTVS
VL: not shown
notes: also called HEK293T-S2L20-CVR; source: HEK293T, stably expressing (lentiviral transduction), on cells
binds: all assays above
